Experimental data from US20150267232A1, “IN VIVO AND IN VITRO CARBENE INSERTION AND NITRENE TRANSFER REACTIONS CATALYZED BY HEME ENZYMES” (California Institute of Technology, priority 2012, published 2015).

B1: ABC: P450BM3 variant: C400S (protein, listed as Bacillus megaterium)
chain: TIKEMPQPKTFGELKNLPLLNTDKPVQALMKIADELGEIFKFEAPGRVTRYLSSQRLIKEACDESRFDKNLSQALKFVRDFAGDGLFTSWTHEKNWKKAHNILLPSFSQQAMKGYHAMMVDIAVQLVQKWERLNADEHIEVPEDMTRLTLDTIGLCGFNYRFNSFYRDQPHPFITSMVRALDEAMNKLQRANPDDPAYDENKRQFQEDIKVMNDLVDKIIADRKASGEQSDDLLTHMLNGKDPETGEPLDDENIRYQIITFLIAGHETTSGLLSFALYFLVKNPHVLQKAAEEAARVLVDPVPSYKQVKQLKYVGMVLNEALRLWPTAPAFSLYAKEDTVLGGEYPLEKGDELMVLIPQLHRDKTIWGDDVEEFRPERFENPSAIPQHAFKPFGNGQRASIGQQFALHEATLVLGMMLKHFDFEDHTNYELDIKETLTLKPEGFVVKAKSKKIPLGGIPSPSTEQSAKKVRKKAENAHNTPLLVLYGSNMGTAEGTARDLADIAMSKGFAPQVATLDSHAGNLPREGAVLIVTASYNGHPPDNAKQFVDWLDQASADEVKGVRYSVFGCGDKNWATTYQKVPAFIDETLAAKGAENIADRGEADASDDFEGTYEEWREHMWSDVAAYFNLDIENSEDNKSTLSLQFVDSAADMPLAKMHGAFSTNVVASKELQQPGSARSTRHLEIELPKEASYQEGDHLGVIPRNYEGIVNRVTARFGLDASQQIRLEAEEEKLAHLPLAKTVSVEELLQYVELQDPVTRTQLRAMAAKTVCPPHKVELEALLEKQAYKEQVLAKRLTMLELLEKYPACEMKFSEFIALLPSIRPRYYSISSSPRVDEKQASITVSVVSGEAWSGYGEYKGIASNYLAELQEGDTITCFISTPQSEFTLPKDPETPLIMVGPGTGVAPFRGFVQARKQLKEQGQSLGEAHLYFGCRSPHEDYLYQEELENAQSEGIITLHTAFSRMPNQPKTYVQHVMEQDGKKLIELLDQGAHFYICGDGSQMAPAVEATLMKSYADVHQVSEADARLWLQQLEEKGRYAKDVWAG
modifications: cytochrome P450NADPH-P-450 reductase precursor, cytochrome P450 (BM3), CYP102A1
notes: P450BM3 variant: C400S
B2: WT-AxH: WT heme domain + C400H (protein)
chain: TIKEMPQPKTFGELKNLPLLNTDKPVQALMKIADELGEIFKFEAPGRVTRYLSSQRLIKEACDESRFDKNLSQALKFVRDFAGDGLFTSWTHEKNWKKAHNILLPSFSQQAMKGYHAMMVDIAVQLVQKWERLNADEHIEVPEDMTRLTLDTIGLCGFNYRFNSFYRDQPHPFITSMVRALDEAMNKLQRANPDDPAYDENKRQFQEDIKVMNDLVDKIIADRKASGEQSDDLLTHMLNGKDPETGEPLDDENIRYQIITFLIAGHETTSGLLSFALYFLVKNPHVLQKAAEEAARVLVDPVPSYKQVKQLKYVGMVLNEALRLWPTAPAFSLYAKEDTVLGGEYPLEKGDELMVLIPQLHRDKTIWGDDVEEFRPERFENPSAIPQHAFKPFGNGQRAHIGQQFALHEATLVLGMMLKHFDFEDHTNYELDIKETLSLKPKGFVVKAKSKKIPLGGIPSPST
modifications: synthetic cytochrome P450-BM3 variant WT-AxH (heme)
notes: WT heme domain + C400H
B3: WT-AxK: WT heme domain + C400K (protein)
chain: TIKEMPQPKTFGELKNLPLLNTDKPVQALMKIADELGEIFKFEAPGRVTRYLSSQRLIKEACDESRFDKNLSQALKFVRDFAGDGLFTSWTHEKNWKKAHNILLPSFSQQAMKGYHAMMVDIAVQLVQKWERLNADEHIEVPEDMTRLTLDTIGLCGFNYRFNSFYRDQPHPFITSMVRALDEAMNKLQRANPDDPAYDENKRQFQEDIKVMNDLVDKIIADRKASGEQSDDLLTHMLNGKDPETGEPLDDENIRYQIITFLIAGHETTSGLLSFALYFLVKNPHVLQKAAEEAARVLVDPVPSYKQVKQLKYVGMVLNEALRLWPTAPAFSLYAKEDTVLGGEYPLEKGDELMVLIPQLHRDKTIWGDDVEEFRPERFENPSAIPQHAFKPFGNGQRAKIGQQFALHEATLVLGMMLKHFDFEDHTNYELDIKETLSLKPKGFVVKAKSKKIPLGGIPSPST
modifications: synthetic cytochrome P450-BM3 variant WT-AxK (heme)
notes: WT heme domain + C400K

Key:
[1] = Small-scale anaerobic C—H amination with purified enzymes, azide 1; assay type: biochemical
Procedure: Activities are presented in TTN. […] Yields and enantioselectivies determined by HPLC analysis. * (S−R)/(S+R). nd=not determined.
Enzymes used as purified catalysts were expressed as previously described (Lewis, J. C. et al., Proc. Natl. Acad. Sci. U.S.A. 106, 16550-16555 (2009)), and were purified by anion-exchange chromatography (for holoenzymes) or Ni-NTA chromatography (for isolated heme domains). Concentrations of P450 or P411 enzymes were determined as previously reported (Omura, T. & Sato, R., J. Biol. Chem. 239, 2370-2378 (1964); Vatsis, K. P. et al., J. Inorg. Biochem. 91, 542-553 (2002)). Small-scale reactions (400 μL) were conducted in 2 mL crimp vials containing degassed buffer (0.1 M potassium phosphate pH 8.0), enzyme (0.1-0.5% catalyst loading) and oxygen depletion system (10× stock solution containing 14,000 U/mL catalase, 1,000 U/mL glucose oxidase dissolved in 0.1 M KPi pH 8.0). Enzyme (P450 or P411) solution and oxygen depletion mixture were added to the vial with a small stir bar before crimp-sealing. […] Reactions were stirred at room temperature for 24 h under positive argon pressure.
Small-scale reactions (400 μL) were conducted in 2 mL crimp vials (Agilent Technologies, San Diego, Calif.) containing buffer (0.1 M potassium phosphate pH 8.0), enzyme (0.1-0.5% catalyst loading) and oxygen depletion system (10× stock solution containing 14,000 U/mL catalase, 1,000 U/mL glucose oxidase dissolved in 0.1 M KPi pH 8.0). Enzyme (P450 or P411) solution and oxygen depletion mixture were added to the vial with a small stir bar before crimp-sealing. […] In the meantime, the headspace of the sealed 2 mL reaction vial with the P450 solution was made anaerobic by flushing argon over the protein solution (with no bubbling). The buffer/reductant/glucose solution (270 μL) was syringed into the reaction vial with continuous argon purge of the vial headspace. An arylsulfonyl azide solution in DMSO (10 μL, 80 mM) was added to the reaction vial via a glass syringe, and the reaction was left stirring for 24 h at room temperature under positive argon pressure. […] Reactions were quenched by adding 30 μL 3 M HCl under argon. To the vials were then added acetonitrile (430 uL) and internal standard (o-toluenesulfonamide 10 mM in 50% acetonitrile 50% water, 1 mM final concentration). This mixture was then transferred to a microcentrifuge tube, and centrifuged at 17,000×g for 10 minutes. A portion (20 μL) of the supernatant was then analyzed by HPLC. For LC-MS analysis, the quenched reaction mixture was extracted twice with ethyl acetate (2×350 μL), dried under a light argon stream and resuspended in 50% water-acetonitrile (100 μL). For chiral HPLC the reactions were extracted as above with ethyl acetate, dried and resuspended in DMSO (100 μL) and then C18 purified as described above. The C18 purified material was dried, and resuspended in acetonitrile, and then injected onto the chiral HPLC system for analysis. Sultam formation was quantified comparison of integrated peak areas of internal standard and sultam at 220 nm to a calibration curve made using synthetically produced sultam and internal standard.
Purified enzymes were screened for activity in small scale reactions (400 μL) under anaerobic conditions as described above. Reactions were carried out using 0.5% mol of enzyme (10 μM) with respect to the triethylsulfonyl azide substrate 1 (2 mM). Standard reaction conditions described above were employed. Diethyl benzosultam product 3 (FIG. 18) was analyzed and quantified by reversed-phase HPLC (see above).
Small-scale reactions (400 μL total volume) were set up and worked up. Control reactions were performed with both the holoenzyme (BM3 with covalently linked reductase domain) and the isolated heme domain. […] Reactions of the complete system with heme domain (CS heme) included 2 mM Na2S2O4 rather than NADPH unless otherwise indicated in the table. […]

[2] = Whole-cell C—H amination of azide 1; assay type: cell-based, E. coli BL21(DE3); conditions: intact E. coli cells
Procedure: Reaction conditions were as follows: 2 mM azide 1, 25 mM glucose, E. coli BL21(DE3) cells in M9-N minimal medium (OD600=30), 2.5% DMSO, oxygen depletion system (100 U ml^−1 glucose oxidase, 1400 U ml^−1 catalase) reacted for 24 hours under anaerobic conditions at 298 K. Yields determined by HPLC quantification.
(§1) Whole cell reactions used E. coli BL21(DE3) cells containing P450 or P411 catalysts, which were expressed and prepared as described elsewhere (Coelho, P. S. et al., Highly efficient carbene transfer to olefins catalyzed in vivo. Submitted (2013)). Following expression, cells were resuspended to an OD600 of 30 in M9 salts lacking NH4Cl (M9-N), and then degassed by sparging with argon in a sealed 6 mL crimp vial for at least 0.5 h. Separately, glucose (250 mM dissolved in 1×M9-N, 40 μL, or multiples thereof) was degassed by sparging with argon for at least five minutes. The oxygen quenching mixture was added to sealed 2 mL crimp vials containing stir bars and the headspace of the vials was purged with argon for five minutes at which time glucose, and then cells were added by syringe. Substrate (80 mM arylsulfonyl azide, 10 uL in DMSO) was added via syringe, and the reactions were stirred at room temperature for 24 h under positive argon pressure.
as §1, with “E.” for “Whole cell reactions used E.”, “catalysts” for “catalysts, which”, “Coelho,” for “(Coelho,”, “μL” for “uL”, “pressure. Reactions were quenched in a manner identical to reactions containing purified enzymes as described above. For chiral HPLC, the reactions were extracted and purified in an identical manner as for reactions that employed purified enzymes. Lyophilized intact cells containing sucrose as a cryoprotectant were prepared as described elsewhere (Coelho, P. S. et al., Highly efficient carbene transfer to olefins catalyzed in vivo. Submitted (2013)). The resulting cell powder, containing expressed ABC-CIS (26 mg) were added along with a stir bar to a 2 mL crimp vial and then sealed. The headspace of the vial was degassed, oxygen quenching system (40 μL) was added via syringe, followed by degassed glucose (250 mM, 40 μL), M9-N (310 μL), and finally substrate (80 mM 1, 10 μL). Lyophilized cell reactions were stirred for 24 h at room temperature, then quenched and analyzed as described above. […]” for “pressure.”
The preparative reaction was scaled up proportionally from small-scale reactions. E. coli BL21 cells containing ABC-CIS (OD600 30, 90 mL in M9-N) were sparged with argon for 45 minutes in a round bottom flask (250 mL) containing a stir bar. Separately, glucose solution (250 mM, 11.6 mL) was sparged with argon in a conical flask. The oxygen quenching mixture (10×, 11.6 mL) was degassed in a conical flask that was placed under high vacuum until slight foaming occurred (1-2 s) and then back-filled with argon; this sequence was repeated several times. Sparged glucose solution was then added to the anaerobic cell suspension via syringe, followed by the oxygen quenching system. Finally, substrate 1 (80 mM, 2.9 mL DMSO) was added dropwise via syringe, and the reaction was stirred for 24 h at room temperature. To quench the reaction, dilute HCl (3 M, 8.7 mL) and acetonitrile (125 mL) were added. […]

[3] = Intramolecular carbene C—H insertion, substrate 4.1a; assay type: biochemical; conditions: 10 mM 4.1a, 10 uM P450, 10 mM Na2S2O4; product 4.2a
Procedure: Yield of product 4.22b was established after calibration with phenethyl alcohol as an internal standard. The reaction is not catalyzed by the WT-BM3 heme domain or hemin at 5% catalyst loading.
A representative procedure for P450-catalyzed C—H insertion is as follows: A vial containing WT-AxD (20 μL, 200 μM) was sealed with a teflon cap and the headspace of this vial was purged with argon for 5 min. Concurrently, a solution of sodium dithionite (11 mM in phosphate buffer pH=8) was degassed for a minimum of 5 min and 360 μL of this solution was transferred to the vial containing protein. The gas lines were disconnected from the vials. The substrate 4.1a or 4.1b was then added as a solution (20 μL, 200 mM). Final concentrations of all components were: 10 uM enzyme, 10 mM substrate, and 10 mM dithionite. […]
The mixture was extracted with 1 mL cyclohexane and analyzed by GC-MS or GC. GC-MS was performed on a Shimadzu TQ8030 GC-MS with ion count detector and J&W HP-5 column (30 m×0.32 mm, 0.25 μm film) using the following method: 90° C. (hold 2 min), 90-190° C. (20° C./min), and 190-230 (40° C./min)

[4] = OD600=30, 2 mM azide 1, 24 hours, anaerobic

Molecule	TTN ([1]; 0.1 mol % catalyst loading (2 μM), 2 mM azide 1, 2 mM NADPH, benzosultam 3)	% ee ([1]; 0.1 mol % catalyst loading, (S−R)/(S+R), benzosultam 3) [%]	TTN (C—H amination product 3) ([1]; catalyst loading 0.5 mol %, NADPH, anaerobic)	Yield sulfonamide (%) [2, 4] [%]	Yield sultam (%) [2, 4] [%]	TTN ([2]; anaerobic, added glucose)	% ee ([2]; (S − R)/(S + R)) [%]	Yield % [3] [%]
B1	32	20	49	80	6.7	29	16	
B2								0
B3								0
